Measured values published in patent publication US20190269786A1 (published 2019).

B1: huML66-90 conjugate (antibody, human IgG1, kappa, V domains shown)
VH: QVQLQESGPGLVKPSETLSLTCTVSGLSLASNSVSWIRQPPGKGLEWMGVIWNHGGTDYNPSIKSRLSISRDTSKSQVFLKMNSLTAADTAMYFCVRKGGIYFDYWGQGVLVTVSS
VL: DTVLTQSPSLAVSPGERATISCRASESVSTLMHWYQQKPGQQPKLLIYLASHRESGVPARFSGSGSGTDFTLTIDPMEAEDTATYYCQQSRNDPWTFGQGTKLELKR
modifications: drug attachment sites not stated (see heavy chain); compound 90 conjugated to the antibody, average 2.7 per antibody; residues not stated
B2: huMOV19-14 conjugate (antibody, human IgG1, kappa, V domains shown)
VH: QVQLVQSGAEVVKPGASVKISCKASGYTFTGYFMNWVKQSPGQSLEWIGRIHPYDGDTFYNQKFQGKATLTVDKSSNTAHMELLSLTSEDFAVYYCTRYDGSRAMDYWGQGTTVTVSS
VL: DIVLTQSPLSLAVSLGQPAIISCKASQSVSFAGTSLMHWYHQKPGQQPRLLIYRASNLEAGVPDRFSGSGSKTDFTLTISPVEAEDAATYYCQQSREYPYTFGGGTKLEIKR
modifications: drug attachment sites not stated (see heavy chain); compound 14 (indolinobenzodiazepine dimer, Gly-Gly-Gly linker, NHS ester) conjugated to the antibody, average 3.0 per antibody; residues not stated
B3: huMOV19-90 conjugate (antibody, human IgG1, kappa, V domains shown)
VH: QVQLVQSGAEVVKPGASVKISCKASGYTFTGYFMNWVKQSPGQSLEWIGRIHPYDGDTFYNQKFQGKATLTVDKSSNTAHMELLSLTSEDFAVYYCTRYDGSRAMDYWGQGTTVTVSS
VL: DIVLTQSPLSLAVSLGQPAIISCKASQSVSFAGTSLMHWYHQKPGQQPRLLIYRASNLEAGVPDRFSGSGSKTDFTLTISPVEAEDAATYYCQQSREYPYTFGGGTKLEIKR
modifications: drug attachment sites not stated (see heavy chain); compound 90 (indolinobenzodiazepine dimer, L-Ala-L-Ala linker, NHS ester) conjugated to the antibody, average 2.7 per antibody; residues not stated
B4: huMOV19-sulfo-SPDB-107 conjugate (antibody, human IgG1, kappa, V domains shown)
VH: QVQLVQSGAEVVKPGASVKISCKASGYTFTGYFMNWVKQSPGQSLEWIGRIHPYDGDTFYNQKFQGKATLTVDKSSNTAHMELLSLTSEDFAVYYCTRYDGSRAMDYWGQGTTVTVSS
VL: DIVLTQSPLSLAVSLGQPAIISCKASQSVSFAGTSLMHWYHQKPGQQPRLLIYRASNLEAGVPDRFSGSGSKTDFTLTISPVEAEDAATYYCQQSREYPYTFGGGTKLEIKR
modifications: drug attachment sites not stated (see heavy chain); compound 107 linked through sulfo-SPDB linker to the antibody, average 2.7 per antibody; residues not stated

Legend:
Assay in all cases: cell-based or functional assay
[1] = target: EGFR (UniProt P00533 25-1210, limits assumed)
[2] = target: T1, folate receptor 1 (FOLR1) (human, UniProt P15328 25-234)
[3] = target: T1, folate receptor 1 (FOLR1); remark: listed apart in the source
[4] = target: T1, folate receptor 1 (FOLR1); remark: listed apart in the source

T1 sequence (P15328 25-234): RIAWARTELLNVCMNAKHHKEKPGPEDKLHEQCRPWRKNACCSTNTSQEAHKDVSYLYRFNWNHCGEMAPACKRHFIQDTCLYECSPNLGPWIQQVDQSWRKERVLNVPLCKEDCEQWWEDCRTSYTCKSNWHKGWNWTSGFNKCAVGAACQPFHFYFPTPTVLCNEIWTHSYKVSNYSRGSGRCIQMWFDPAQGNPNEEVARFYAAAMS

Binder	IC50, in vitro cytotoxicity (WST-8), Ishikawa cells, conjugate [3]	IC50, in vitro cytotoxicity (WST-8), KB cells, conjugate [3]	IC50, in vitro cytotoxicity (WST-8), NCI-H2110 cells, conjugate [3]	IC50, in vitro cytotoxicity, Ishikawa cells, conjugate + unmodified antibody (1 µM huMOV19) [3]	IC50, in vitro cytotoxicity, KB cells, conjugate + unmodified antibody (1 µM huMOV19) [3]	IC50, in vitro cytotoxicity, NCI-H2110 cells, conjugate + unmodified antibody (1 µM huMOV19) [3]	other results
B1							EC50, in vitro cytotoxicity (WST-8), Detroit-562 cells [1]: 0.016 nM; EC50, in vitro cytotoxicity (WST-8), NCI-H292 cells [1]: 0.012 nM; EC50, in vitro cytotoxicity (WST-8), NCI-H1703 cells [1]: 0.02 nM; EC50, in vitro cytotoxicity, Detroit-562 cells, +block (excess unconjugated huML66 antibody) [1]: 2.35 nM; EC50, in vitro cytotoxicity, NCI-H292 cells, +block (excess unconjugated huML66 antibody) [1]: 1.57 nM; EC50, in vitro cytotoxicity, NCI-H1703 cells, +block (excess unconjugated huML66 antibody) [1]: 2.14 nM
B2							IC50, in vitro cytotoxicity (WST-8) against KB cells [2]: 0.004 nM
B3	0.05 nM	0.005 nM	0.1 nM	1 nM	1 nM	4 nM	IC50, in vitro cytotoxicity (WST-8), KB cells, -Block [4]: 0.004 nM; IC50, in vitro cytotoxicity (WST-8), NCI-H2110 cells, -Block [4]: 0.02 nM; IC50, in vitro cytotoxicity, KB cells, +Block (1 µM blocking anti-FOLR1 antibody huMOV19) [4]: 0.8 nM; IC50, in vitro cytotoxicity, NCI-H2110 cells, +Block (1 µM blocking anti-FOLR1 antibody huMOV19) [4]: 10 nM
B4	0.05 nM	0.005 nM	0.1 nM	2 nM	0.8 nM	7 nM	
